This note sets out measurements from patent US20170306038A1 (published 2017).

One experiment concerns the target T1, human GITR on cells (human, UniProt Q9Y5U5 27-241).
T1 construct: also called hGITR; 293 cells stably transfected with human GITR
T1 sequence: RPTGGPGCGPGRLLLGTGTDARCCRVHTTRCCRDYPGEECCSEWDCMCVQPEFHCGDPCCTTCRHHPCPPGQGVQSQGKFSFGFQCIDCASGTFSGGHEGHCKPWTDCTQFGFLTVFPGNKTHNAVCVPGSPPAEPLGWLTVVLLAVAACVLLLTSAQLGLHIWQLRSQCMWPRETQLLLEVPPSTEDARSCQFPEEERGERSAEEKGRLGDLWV
The experiment is described as follows: FACS competition on HEK293 cells stably expressing hGITR: human GITR ligand titrated first, then 4 nM MAB7 as the competitor read out with PE anti-human. As to the method: The ability of MAB to block ligand binding was assessed using HEK293 NFκB reporter parental cells and hGITR stable cells were used in competition binding assays and FACS analysis. Briefly, harvested cells were plated 1×10⁶ cells per mL, 100 μL per well to a 96 well round bottom FACS plate (Corning), then resuspended in 200 μL of cold FACS buffer (1×PBS+1% FBS-HI+0.1% sodium azide) per well. […] Plates were incubated for 1 hour on ice protected from light, cells washed, then prepared 4 nM isotype control or MAB solutions were prepared and added to appropriate wells at 100 μL per well and plates were incubated for 1 hour on ice protected from light, cells washed, then PE-conjugated goat-anti-human detection antibody (Jackson ImmunoResearch) prepared at 1:100 dilution in FACS buffer was added at 100 μL per well and plates were incubated for 30 minutes on ice protected from light. Cells were washed in FACS buffer then cells were fixed with 100 μL per well of BD CytoFix (BD Biosciences) and incubated for further 15 minutes on ice protected from light.

Experiment [1] concerns the target cyno GITR (cGITR) (cynomolgus monkey). The experiment is described as follows: Biacore.
A further experiment deals with T2, FAS.
T2 construct: not shown: His tag, implied by the HisGrab nickel plate; The construct's exact limits are also wanting
T2 chain: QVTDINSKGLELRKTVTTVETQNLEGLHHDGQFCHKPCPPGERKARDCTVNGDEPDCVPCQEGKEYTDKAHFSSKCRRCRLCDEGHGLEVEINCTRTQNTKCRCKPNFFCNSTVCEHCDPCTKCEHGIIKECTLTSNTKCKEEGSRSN
The experiment is described as follows: specificity ELISA on bacterial lysates with TNFRSF members, HisGrab nickel plate. As to the method:
For the specificity ELISA, a crude cell lysate was made from bacteria expressing members of the TNFRSF family. To prevent nonspecific binding to the plate 50 μL of 5% BSA was added per mL of bacterial lysate. […] The plate was then rinsed three times with PBST, then MAB was diluted to 0.5 μg/mL in 10% FBS in PBS and 100 μL was added to each well. The plate was incubated for 1 hour at room temperature and then rinsed three times with PBST. Anti-human kappa antibody (Sigma #A7164) conjugated to HRP was diluted 1:5000 in 1:1 PBST: 10% FBS in PBS and 100 μL added to each well. The plate was incubated for 1 hour at room temperature, and then washed three times with PBST. 100 μL of SureBlue TMB substrate was added to each well and the plate was incubated for about 10 min at room temperature before stopping the reaction with 100 μL/well of 2N H₂SO₄.

Experiment [2] concerns the target cyno GITR (cGITR) (cynomolgus monkey). The experiment is described as follows: Biacore. This is another data set of the same source.

Where a chain is given by its changes, count along the chain named.

B1: recombinant human GITR ligand (GITR-L) (ligand, UniProt Q9UNG2 52-177, looked up)
chain: ETAKEPCMAKFGPLPSKWQMASSEPPCVNKVSDWKLEILQNGLYLIYGQVAPNANYNDVAPFEVRLYKNKDMIQTLTNKSKIQNVGGTYELHVGDTIDLIFNSEHQVLKNNTYWGIILLANPQFIS
Regarding B1, the “IC50 (read off the curve)” value with human GITR on cells is ~0.2 molar ratio (Human GITR Ligand to MAB7).

B2: MAB4 (IgG1 kappa) (antibody, V domains shown)
VH: EVQLVESGGGLVQSGGSLRLSCAASGFSLSSYGVDWVRQAPGKGLEWVGVIWGGGGTYYASSLMGRFTISRDNSKNTLYLQMNSLRAEDTAVYYCAKHAYGHDGGFAMDYWGQGTLVTVSS
VL: EIVMTQSPATLSVSPGERATLSCRASESVSSNVAWYQQRPGQAPRLLIYGASNRATGIPARFSGSGSGTDFTLTISRLEPEDFAVYYCGQSYSYPFTFGQGTKLEIKR
In the case of B2, in the experiment with cyno GITR (cGITR) [1], the Kd turned out to be 1.78 nM. The binding result with FAS is given as “no binding (tested: 0.5 µg/mL (not on the sheet))”. Moreover, the “fold lower binding affinity for cyno GITR against human GITR” value with cyno GITR (cGITR) [2] is 2 to 3 fold.

B3: MAB5 (IgG1 kappa) (antibody, V domains shown)
VH: B2 VH with V48L, A60T
VL: B2 VL
B3: binding with cyno GITR (cGITR) [1] was characterised by a dissociation constant (Kd) of 1.87 nM. For the same molecule, the binding result with FAS was “no binding (tested: 0.5 µg/mL (not on the sheet))”. In addition, in the experiment with cyno GITR (cGITR) [2], the “fold lower binding affinity for cyno GITR against human GITR” value is 2 to 3 fold.

B4: MAB7 (IgG1 kappa) (antibody, V domains shown)
VH: B2 VH with K97R
VL: B2 VL
notes: MAB4 with the glycation site KH changed to RH
B4: the Kd with cyno GITR (cGITR) [1] is 3.67 nM.
